# B1: Gal4 DBD-HIV-1 p6 (wild type) [HIV-1 (pNL4-3)] / Gal4 AD-ALIX (868 amino acid-long) [not stated] (parent complex)
# chain 1: LQSRPEPTAPPEESFRFGEETTTPSQKQEPIDKELYPLTSLRSLFGSDPSSQ
# chain 2: MATFISVQLKKTSEVDLAKPLVKFIQQTYPSGGEEQAQYCRAAEELSKLRRAAVGRPLDKHEGALETLLRYYDQICSIEPKFPFSENQICLTFTWKDAFDKGSLFGGSVKLALASLGYEKSCVLFNCAALASQIAAEQNLDNDEGLKIAAKHYQFASGAFLHIKETVLSALSREPTVDISPDTVGTLSLIMLAQAQEVFFLKATRDKMKDAIIAKLANQAADYFGDAFKQCQYKDTLPKEVFPVLAAKHCIMQANAEYHQSILAKQQKKFGEEIARLQHAAELIKTVASRYDEYVNVKDFSDKINRALAAAKKDNDFIYHDRVPDLKDLDPIGKATLVKSTPVNVPISQKFTDLFEKMVPVSVQQSLAAYNQRKADLVNRSIAQMREATTLANGVLASLNLPAAIEDVSGDTVPQSILTKSRSVIEQGGIQTVDQLIKELPELLQRNREILDESLRLLDEEEATDNDLRAKFKERWQRTPSNELYKPLRAEGTNFRTVLDKAVQADGQVKECYQSHRDTIVLLCKPEPELNAAIPSANPAKTMQGSEVVNVLKSLLSNLDEVKKEREGLENDLKSVNFDMTSKFLTALAQDGVINEEALSVTELDRVYGGLTTKVQESLKKQEGLLKNIQVSHQEFSKMKQSNNEANLREEVLKNLATAYDNFVELVANLKEGTKFYNELTEILVRFQNKCSDIVFARKTERDELLKDLQQSIAREPSAPSIPTPAYQSSPAGGHAPTPPTPAPRTMPPTKPQPPARPPPPVLPANRAPSATAPSPVGAGTAAPAPSQTPGSAPPPQAQGPPYPTYPGYPGYCQMPMPMGYNPYAYGQYNMPYPPVYHQSPGQAPYPGPQQPSYPFPQPPQQSYYPQQ
# Variants of: B1
# Assay: yeast two-hybrid, liquid β-galactosidase assay; yeast AH109, 30°C, SD/-Leu/-Trp selection medium; triplicate; parent: 1; read off a plot
row,Variant,ratio to parent
1,chain 1 L41A,~0.15
2,chain 1 G46A,~0.95
3,chain 1 P37A,~0.3
4,chain 1 E34A,~0.35
5,chain 1 R42A,~0.25
6,chain 1 K33A,~1
7,chain 1 I31A,~0.95
8,chain 1 T39A,~1.1
9,chain 1 L44A,~0.6
10,chain 1 S43A,~0.8
11,chain 1 S40A,~1
12,chain 1 F45A,~1
13,chain 1 D32A,~0.86
14,chain 1 L35A,~0.2

# Source: article PMC2397435 (2008)
